1 protein from US20200345839A1 (DESENTUM, published 2020) can be followed below.

This series deals with the molecule itself. Put plainly: native ESI FT-ICR mass spectrometry, 40 uM in 10 mM ammonium acetate (self-association). As for the experimental part: The mass spectrometric experiments were performed with a 12T solariX XR mass spectrometer (Bruker Daltonics, Billerica, Mass., USA), equipped with an Apollo II ion funnel electrospray source. Before a mass spectrometric analysis, the protein sample was exchanged into an ESI-MS compatible ammonium acetate buffer (10 mM, pH 6.9) by using disposable PD-10 desalting columns (GE Healthcare). For mass spectrometric measurements in denaturing solution conditions, protein sample was diluted to 0.2 μM with acetonitrile/water/acetic acid solution. The protein solution was directly infused into the ion source by a syringe pump with a flow rate of […]. The temperature of the drying gas was 200° C. and the pressure of the nebulizing gas was 1.0 bar. Mass spectra were acquired in the positive ion mode over the m/z range of 800-3000 with 1-Mword time-domain transients and 0.05 sec ion accumulation. […] Desalted protein samples were usually measured at a concentration of 40 μM in 10 mM ammonium acetate buffer. Typically, 100 co-added 256-kword time-domain transients were recorded and processed to 512-kword data prior to fast Fourier transform and frequency to mass conversion. The wild-type Equ c 1 allergen and the Equ c 1 mutants were measured using the same instrumental parameters, in order to avoid any bias between the protein samples. […]

B1: recombinant wild-type Equ c 1 allergen (other)
chain: QQEENSDVAIRNFDISKISGEWYSIFLASDVKEKIEENGSMRVFVDVIRALDNSSLYAEYQTKVNGECTEFPMVFDKTEEDGVYSLNYDGYNVFRISEFENDEHIILYLVNFDKDRPFQLFEFYAREPDVSPEIKEEFVKIVQKRGIVKENIIDLTKIDRCFQLRGNGVAQA
notes: Reported to exist mainly as a dimer at 40 uM; also called rEqu c 1 wt; wt rEqu c 1
Consider B1, for which the binding result is “binds”.
